Reference: PMC12724329

Target: gcKPNB3-FLAG (grass carp importin beta 3, FLAG-tagged) (grass carp)
Test: co-IP; co-IP of IRF3 with gcKPNB3 from GCRV-infected CIK cells with gcDDX56 overexpressed (+, 4 µg; ++, 8 µg plasmid) or knocked down by siRNA; bands quantified with ImageJ

“gcIRF3-HA (grass carp IRF3, HA-tagged) (natural protein)” showed a fold change of the interaction on gcDDX56 knockdown against the siRNA control of 3.23 fold.
